Data from the supplement of paper PMC12042874.
± gives the uncertainty stated by the source.

Assay: amyloid nucleation score (Sup35N fusion, yeast selection) (log enrichment); library NNK2; higher = more nucleation; inactive = no reads after selection
Method in brief: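 Yeast lacking psi expressed peptides of 20 random codons fused to Sup35N, received 100 μM copper sulfate for 24 hours, and were then grown for 7 days at 30°C on medium lacking adenine and uracil. Illumina sequencing of input and output plasmid inserts provided the reads. Nucleation scores are DiMSum log enrichments of output over input, centred on the mode of non-aggregating sequences. Any sequence with under 100 input reads was excluded.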

In order of rising amyloid nucleation score:
1. FTDRDLGNLTYDDRFDICNY  -1.75 ± 0.76
2. FSYNMACLNKLLSLSLYRFS  -1.29 ± 0.44
3. FVSFSSLTKTLWYRRRRMVR  -1.06 ± 1.1
4. FTEFPNFNDMSDRVV  -0.92 ± 0.64
5. FVDWVMCIVMYVRLR  -0.87 ± 0.41
6. FRVVRFVQTGSTFSIARFIK  -0.83 ± 0.39
7. FVVGAES  -0.821 ± 0.48
8. FSDNTVNTQQVEGIYQIDPN  -0.705 ± 0.46
9. FSVFTD  -0.678 ± 0.61
10. FVLNHLAV  -0.548 ± 0.54
11. FSCEACIFLLYSYMFMNL  -0.522 ± 0.55
12. FSDDLVRDV  -0.505 ± 0.28
13. FTCDSSLYAES  -0.485 ± 0.41
14. FSMLF  -0.462 ± 0.56
15. FWLLSTCGV  -0.408 ± 0.29
16. FRFFCHISMNLGTLWRLDCL  -0.405 ± 0.44
17. FRHCTFRLFHAHK  -0.378 ± 1
18. FSLCDILVLVNTNAGWAAFD  -0.352 ± 1
19. FRCHYFNWNDFALAVSFSKE  -0.33 ± 0.38
20. FSLHKCNVRLGISNGT  -0.276 ± 0.48
21. FVYNQWSYRLRYLTVAIRD  -0.111 ± 0.56
22. FTESCQCS  -0.08 ± 0.31
23. FTGRETFQRKRFAAVLSSSV  -0.062 ± 0.65
24. FRLFVKNKGRELICDLWVCT  -0.024 ± 1
25. FSVRLISFRSSLLLMSQDLL  0.138 ± 1.1
26. FVCPFVVCYAGIGGRGGYVM  0.173 ± 1.1
27. FTAMNIGNACMESQALPWNL  0.198 ± 0.65
28. FQLYT  0.238 ± 0.29
29. FSLPFC  0.246 ± 0.49
30. FRQFS  0.285 ± 1
31. FSGKMN  0.301 ± 0.57
32. FVLSDQK  0.347 ± 0.21
33. FSRWVVVLVVQLWSLALRSN  0.369 ± 0.65
34. FVQSVGNMVSNSGRAGGMPG  0.444 ± 0.31
35. FSWASAQLIHSV  0.59 ± 0.64
36. FSLEMTLFWPVFRLCPISSL  0.606 ± 0.66
37. FTQTSTVPSKETALALNLMR  0.688 ± 0.57
38. FQHNVAIKRWRRLADSLYSV  0.723 ± 0.57
39. FVLRIDNC  0.735 ± 0.39
40. FRDQGIFIHLWS  0.781 ± 0.44
41. FSACFGCFVLAKSNHY  0.955 ± 0.25
42. FVGDTIQVVIWLMIIYFWFF  0.959 ± 0.74
43. FSSSYCNVYYWFYMFFHWG  1.25 ± 0.14
44. FSNTYHFCISNYMWLNEVLM  1.36 ± 0.19
45. FVIVFVRRSNTFLAPQKVWG  1.6 ± 0.14
46. FRQRDKRVTEMTPAERGGQ  2.79 ± 0.091
47. FWGIVKYMWIFSTTYLNVFL  3.22 ± 0.11
48. FRVKLTLRFLNITECCLDYL  3.29 ± 0.095
49. FWGGDLRACSCGQGIEFAGR  3.7 ± 0.14
50. FTRSWFLYTT  3.85 ± 0.095
51. FSAVHAHQQNLLVVFYTCCA  3.97 ± 0.08
52. FWHIEMCENSTYHVSLSTGC  4.394 ± 0.04
53. FVFIYYIVLQHATANHSMQA  4.921 ± 0.044
54. FSSSNSIFKFVLNVRCTGVK  5.045 ± 0.049
55. FVVIWAMDIDVLWSMGGKID  5.46 ± 0.061
56. FTCFFLVLRVKSLLMVSAVG  6.34 ± 0.079
57. FVGCVNLRLCSSITTAWSSL  8.346 ± 0.046

In the case of FRFANRVTIKSFLGV, the amyloid nucleation score is reported as “inactive”.
In the case of FRMGY, the amyloid nucleation score is reported as “inactive”.
With FRNPHYASHGQYHYRFNMRY the amyloid nucleation score was “inactive”.
In the case of FSLQCPFSERKIYRRLCSPS, the amyloid nucleation score is reported as “inactive”.
For FSTCVVSGSSLYCGGLTLVH, the amyloid nucleation score was “inactive”.
With FTIIGAAIKRVVVLTVSPYY the amyloid nucleation score was “inactive”.
In the case of FTNCEYNVDISCVSGLSYSI, the amyloid nucleation score is reported as “inactive”.
